Experimental data taken from US11370846B2, “Compositions and methods to regulate Renalase in the treatment of cancer” (Yale University, priority 2014, dated 2022).
Entries after “also recorded” stand apart in the source; their conditions may differ.

What was measured:
[1] = tested on: renalase-1 and renalase-2; assay: Renalase isoform specificity of anti-renalase antibodies; format: binding, human; details: renalase-1 vs renalase-2
Experimental: Peptides were used as immunogens. The peptides generated ranged from 9 to 21 amino acids and corresponded to regions of the renalase-1 and renalase-2 proteins. […] Each peptide was conjugated to the adjuvant KLH via the cysteine and used to immunize 6 rabbits. Antiserum collected from each animal was screened for anti-renalase antibody titer by ELISA assay using both the relevant peptide (BSA-conjugate) or full length renalase-1 or 2. The antisera were also tested for their ability to detect endogenous renalase in tissue lysates by western blot. Using these screening criteria the animals producing antibodies with the preferred characteristics were selected. In some examples and for some peptides, several animals produced antibodies with the required specificity. […] Polyclonal antibodies raised against all of the peptides were generated by purification of total IgG from terminal bleeds by protein G chromatography followed by further purification on peptide affinity chromatography. Further and using standard procedures, lymphocytes from the spleens of selected animals were fused to myeloma cells for hybridoma generation. The hybridoma supernatants were screened for binding to both the peptides against which they were raised and secondarily screened against whole renalase protein. Selected hybridomas were sub-cloned and expanded for antibody purification. The monoclonal antibodies were purified from conditioned hybridoma culture supernatant by protein A affinity chromatography.

[2] = tested on: A375.S2 xenograft tumors; format: in vivo
Experimental: Immunohistochemistry was performed as described previously (Guo et al., 2012 Cancer science. 103:1474-80). Briefly, tumor tissues were formalin-fixed, paraffin-embedded and cut into 5-μm sections on glass slides. The slides were de-paraffinized and hydrated, followed by antigen retrieval in a pressure cooker containing 10 mM sodium citrate, pH6 buffer. The sections were blocked in 3% hydrogen peroxide for 30 min and 2.5% normal horse serum in PBS/0.1% Tween20 for 1 h followed by incubation with primary antibody and isotype control IgG overnight at 4° C. The following antibodies were used in this study: m28-RNLS at 500 ng/ml; goat polyclonal anti-RNLS at 250 ng/ml (Abcam, ab31291); rabbit monoclonal anti-CD68 (BDBioscience, 1:100); rabbit monoclonal anti-CD163 (AbD Serotec, 1:100); rabbit monoclonal anti-CD86 (Abcam, 1:100); rabbit monoclonal anti-Ki67 (Vector Lab, VP-RM04, 1:100); rabbit monoclonal anti-p21, phspho-Tyr^705-Stat3, and total Stat3 (Cell Signaling Technologies, #2947, 1:100, #9145, 1:400, and #4904, 1:400, respectively). ImmPRESS peroxidase-anti-rabbit IgG (Vector Laboratories, Burlingame, Calif., USA) was used to detect primary antibodies. The color was developed using a Vector DAB substrate kit and counterstained with hematoxylin (Vector Laboratories). Slides were observed and photographed using an Olympus BX41 microscope and camera (Olympus America Inc, Center Valley, Pa., USA).
Female athymic, 18-20 g nude mice (nu/nu) were obtained from Charles River (Willimantic, Conn.) and housed in microisolator cages, with autoclaved bedding in a specific pathogen-free facility, with a 12-h light/dark cycle.
Xenograft tumors were established by subcutaneous injection of A375.S2 cells (2×10^6 in 100 μl of PBS, pH 7.6). When the tumors reached a volume of 50-100 mm^3, the mice were divided into a control group (n=14 treated with rabbit IgG, 40 μg by intraperitoneal injection (IP) once weekly, and 40 ug subcutaneously (SQ) around the tumor site every 3 days), and an experimental group (n=14) that received m28-RNLS (40 μg IP, once weekly, and 40 ug SQ, every 3 days). Tumor size was measured with digital calipers and volume was calculated according to the formula (length×width)×π/2.
At the end of the study, the mice were sacrificed, the tumors were excised and immediately snap-frozen in liquid nitrogen and stored at −80° C. Apoptosis was examined using the TUNEL assay (Roche in situ Apoptosis Detection System), according to the manufacturer's instructions. Sections were examined by light microscopy and the apoptosis index was determined by counting >1000 cells in 10 randomly selected high-power fields (×200 magnification).

[3] = tested on: Panc1 cells; assay: FACS apoptosis and cell cycle analysis of Panc1 cells; format: cell-based, human; details: 30 μg/ml
Experimental: (§1) FIG. 26A through FIG. 26E are a series of images and charts showing that inhibition of RNLS signaling induces apoptosis and cell cycle arrest. […] FIG. 26B is a chart depicting FACS analysis of Panc1 cells in culture treated with either m28-RNLS (30 μg/ml) or 100 μM etoposide (positive control) for 4 days; n=3, * indicates p<0.05. FIG. 26C is an image showing Panc1 cells treated with polyclonal ab31291 or with goat IgG as a negative control, and cells lysates probed for p38 and Bax activation by western blot. […] FIG. 26E is a chart showing the effect of m28-RNLS on cell cycle of Panc1 cells determined by FACS analysis; green curve: no treatment, purple curve: rabbit IgG, red curve: m28-RNLS 30 μg/ml.
For cell cycle analysis, cultured cells were dissociated using 10 mM EDTA, fixed with ice-cold 70% ethanol, digested with RNAse A, and stained with propidium iodide. Propidium staining was detected using a BD FACSCalibur flow cytometer (BD Biosciences, San Jose, Calif., USA), and analyzed using CellQuest software.
Apoptosis was detected and quantified as previously done (Guo et al., 2012 Cancer Science. 103(8):1474-80). […] At least 20,000 events were collected on a BD FACSCalibur flow cytometer (BD Biosciences, San Jose, Calif., USA) and analyzed using CellQuest software.

[4] = tested on: STAT3; assay: STAT3 phosphorylation in Panc1 cells by western blot; format: cell-based, human; details: antibody treatment for up to 4 days; listed as m28-RNLS
Source text: FIG. 27A through FIG. 27E are a series of images and charts showing the interaction between RNLS and STAT3, and the mechanistic model of inhibition by m28-RNLS. FIG. 27A is an image showing activation of STAT3 by RNLS in Panc1 cells; Panc1 cells in culture treated with either BSA or RNLS, and STAT3 phosphorylation assessed by western blot; p-Ser^727-STAT3: phosphorylation at serine 727, p-Y^705-STAT3: phosphorylation at tyrosine 705; representative study. FIG. 27B is a chart depicting the quantification of STAT3 phosphorylation with RNLS; signals normalized to total STAT3; n=3, *=P<0.05. […] FIG. 27D is a chart showing the quantification of STAT3 phosphorylation with m28-RNLS; signals normalized to GAPDH loading control; n=3, *=P<0.05. FIG. 27E depicts the proposed mechanistic model for antitumor activity of m28-RNLS.

[5] = tested on: p38 MAPK; assay: p38 MAPK phosphorylation in Panc1 cells by western blot; format: cell-based, human; details: beginning at day 1 post treatment
Experimental: as §1

B1: 1D-28-4: rabbit anti-renalase monoclonal raised against peptide RP-220 (antigen 1D); heavy chain SEQ ID NO:9, light chain SEQ ID NO:10 (antibody)
heavy: METGLRWLLLVAVLKGVQCQSVEESGGRLVTPGTPLTLTCTVSGFSLSSFAVGWVRQAPGKGLEYIGIISSVGITRYASWAAGRFTISKTSTTVDLKITSPTTEDTATYFCARYGYSGDVNRLDLWGQGTLVTVSSGQPKAPSVFPLAPCCGDTPSSTVTLGCLVKGYLPEPVTVTWNSGTLTNGVRTFPSVRQSSGLYSLSSVVSVTSSSQPVTCNVAHPATNTKVDKTVAPSTCSKPTCPPPELLGGPSVFIFPPKPKDTLMISRTPEVTCVVVDVSQDDPEVQFTWYINNEQVRTARPPLREQQFNSTIRVVSTLPIAHQDWLRGKEFKCKVHNKALPAPIEKTISKARGQPLEPKVYTMGPPREELSSRSVSLTCMINGFYPSDISVEWEKNGKAEDNYKTTPAVLDSDGSYFLYSKLSVPTSEWQRGDVFTCSVMHEALHNHYTQKSISRSPGK
light: MDTRAPTQLLGLLLLWLPGATFAQVLTQTASPVSAAVGGTVTINCQASQSVYDNNNLAWYQQKPGQPPKQLIYGASTLASGVSSRFKGSGSGTQFTLTISGVQCDDAATYYCLGEFSCSSADCFAFGGGTEVVVKGDPVAPTVLIFPPSADLVATGTVTIVCVANKYFPDVTVTWEVDGTTQTTGIENSKTPQNSADCTYNLSSTLTLTSTQYNSHKEYTCKVTQGTTSVVQSFNRGDC
modifications: oryctolagus cuniculus
renalase isoform specificity [1]: recognize renalase-1 and renalase-2
Ki67 positive cells ([2]; IHC of xenografted tumors): 13.4±3.0 positive cells/high power field
p21 positive cells ([2]; IHC of xenografted tumors): 24.2±2.4 positive cells
number of CD163+ TAMs ([2]; immunofluorescence of xenografts, listed as m28-RNLS): decreases CD163+TAMs
total and phosphorylated STAT3 in tumors ([2]; immunofluorescence, listed as m28-RNLS): marked reduction; also recorded: dramatic reduction
ratio of CD86+ to CD163+ TAMs ([2]; mouse, in vivo): increases the ratio
toxicity of antibody treatment ([2]; overall animal health and activity): did not appear to be toxic
mouse RNLS expression in tumor mass ([2]; qPCR, mouse specific primers): significant reduction
p-Y705-STAT3 and total STAT3 in tumors ([2]; western blot): significantly decreased
cell cycle of Panc1 cells [3]: pre-G2 cell cycle arrest
apoptosis of Panc1 cells ([3]; 4 days): caused apoptosis
p-Y705-STAT3 in Panc1 [4]: long-lasting and sustained decrease; also recorded: inhibits STAT3 phosphorylation
phosphorylation of p38 MAPK [5]: sustained phosphorylation
